Results published in US20200308270A1 (Zymeworks, published 2020).
Where a chain is given by its changes, count along the chain named. In names and notes the source's numbering stands.

B1: CAT-2200 designed Vlambda-Ckappa chimeric Fab, design 18 (E83F_D85T_T105E) (Fab, V domains shown)
VH: not shown
VL: NFMLTQPHSVSESPGKTVTISCTRSSGSLANYYVQWYQQRPGSSPTIVIFANNQRPSGVPDRFSGSIDSSSNSASLTISGLKTEDFATYYCQTYDPYSVVFGGGTKLEVLR
B2: CAT-2200 designed Vlambda-Ckappa chimeric Fab, design 36 (E83A_T105E) (Fab, V domains shown)
VH: not shown
VL: B1 VL with F86A, T88D
B3: CAT-2200 designed Vlambda-Ckappa chimeric Fab, design 15 (E83F_T105E) (Fab, V domains shown)
VH: not shown
VL: B1 VL with T88D
B4: CAT-2200 designed Vlambda-Ckappa chimeric Fab, design 30 (E83I) (Fab, V domains shown)
VH: not shown
VL: B1 VL with F86I, T88D, E108T
B5: CAT-2200 designed Vlambda-Ckappa chimeric Fab, design 34 (E83I_D85T_T105E_V106I) (Fab, V domains shown)
VH: not shown
VL: B1 VL with F86I, V109I
B6: CAT-2200 designed Vlambda-Ckappa chimeric Fab, design 39 (E83A_D85T_T105E_V106I) (Fab, V domains shown)
VH: not shown
VL: B1 VL with F86A, V109I
B7: CAT-2200 designed Vlambda-Ckappa chimeric Fab, design 37 (E83A_D85T) (Fab, V domains shown)
VH: not shown
VL: B1 VL with F86A, E108T
B8: CAT-2200 designed Vlambda-Ckappa chimeric Fab, design 16 (E83F_V106I) (Fab, V domains shown)
VH: not shown
VL: B1 VL with T88D, E108T, V109I
B9: CAT-2200 designed Vlambda-Ckappa chimeric Fab, design 32 (E83I_D85T) (Fab, V domains shown)
VH: not shown
VL: B1 VL with F86I, E108T
B10: CAT-2200 designed Vlambda-Ckappa chimeric Fab, design 35 (E83A) (Fab, V domains shown)
VH: not shown
VL: B1 VL with F86A, T88D, E108T
B11: CAT-2200 designed Vlambda-Ckappa chimeric Fab, design 38 (E83A_D85T_T105E) (Fab, V domains shown)
VH: not shown
VL: B1 VL with F86A
B12: CAT-2200 designed Vlambda-Ckappa chimeric Fab, design 29 (E83V_D85T_T105E_V106I) (Fab, V domains shown)
VH: not shown
VL: B1 VL with F86V, V109I
B13: CAT-2200 designed Vlambda-Ckappa chimeric Fab, design 19 (E83F_D85V_T105E) (Fab, V domains shown)
VH: not shown
VL: B1 VL with T88V
B14: CAT-2200 designed Vlambda-Ckappa chimeric Fab, design 23 (E83V) (Fab, V domains shown)
VH: not shown
VL: B1 VL with F86V, T88D, E108T
B15: CAT-2200 designed Vlambda-Ckappa chimeric Fab, design 27 (E83V_D85T_T105E) (Fab, V domains shown)
VH: not shown
VL: B1 VL with F86V
B16: CAT-2200 designed Vlambda-Ckappa chimeric Fab, design 14 (E83F) (Fab, V domains shown)
VH: not shown
VL: B1 VL with T88D, E108T
B17: CAT-2200 designed Vlambda-Ckappa chimeric Fab, design 20 (E83F_D85T_T105E_V106I) (Fab, V domains shown)
VH: not shown
VL: B1 VL with V109I
B18: CAT-2200 designed Vlambda-Ckappa chimeric Fab, design 21 (E83F_D85V_T105E_V106I) (Fab, V domains shown)
VH: not shown
VL: B1 VL with T88V, V109I
B19: CAT-2200 designed Vlambda-Ckappa chimeric Fab, design 26 (E83V_D85T) (Fab, V domains shown)
VH: not shown
VL: B1 VL with F86V, E108T
B20: CAT-2200 designed Vlambda-Ckappa chimeric Fab, design 24 (E83V_T105E) (Fab, V domains shown)
VH: not shown
VL: B1 VL with F86V, T88D
B21: CAT-2200 designed Vlambda-Ckappa chimeric Fab, design 25 (E83V_V106I) (Fab, V domains shown)
VH: not shown
VL: B1 VL with F86V, T88D, E108T, V109I
B22: CAT-2200 designed Vlambda-Ckappa chimeric Fab, design 28 (E83V_D85V_T105E) (Fab, V domains shown)
VH: not shown
VL: B1 VL with F86V, T88V
B23: CAT-2200 designed Vlambda-Ckappa chimeric Fab, design 17 (E83F_D85T) (Fab, V domains shown)
VH: not shown
VL: B1 VL with E108T
B24: CAT-2200 designed Vlambda-Ckappa chimeric Fab, design 33 (E83I_D85T_T105E) (Fab, V domains shown)
VH: not shown
VL: B1 VL with F86I
B25: CAT-2200 designed Vlambda-Ckappa chimeric Fab, design 31 (E83I_T105E) (Fab, V domains shown)
VH: not shown
VL: B1 VL with F86I, T88D
B26: H3 designed Vlambda-Ckappa chimeric Fab, design 18 (E83F_D85T_T105E) (Fab, name in Kabat numbering, V domains shown)
VH: QVQLQESGGGLVKPGGSLRLSCAASGFTFSSYWMSWVRQAPGKGLEWVANINRDGSASYYVDSVKGRFTISRDDAKNSLYLQMNSLRAEDTAVYYCARDRGVGYFDLWGRGTLVTVSS
VL: QSALTQPASVSGSPGQSITISCTGTSSDVGGYNFVSWYQQHPGKAPKLMIYDVSDRPSGVSDRFSGSKSGNTASLIISGLQADDFATYYCSSYGSSSTHVIFGGGTKVEVLR
B27: H3 wild-type lambda Fab (Fab, V domains shown)
VH: B26 VH
VL: B26 VL with F85E, T87D, E109T, R112G
notes: Truncated heavy chain (VH-CH1-upper IgG1 hinge) and 'wild-type' lambda light chain (H3 VL + IGLC2); also called WT; H3 Fab
B28: H3 designed Vlambda-Ckappa chimeric Fab, design 15 (E83F_T105E) (Fab, name in Kabat numbering, V domains shown)
VH: B26 VH
VL: B26 VL with T87D
B29: H3 designed Vlambda-Ckappa chimeric Fab, design 37 (E83A_D85T) (Fab, name in Kabat numbering, V domains shown)
VH: B26 VH
VL: B26 VL with F85A, E109T
B30: H3 designed Vlambda-Ckappa chimeric Fab, design 36 (E83A_T105E) (Fab, name in Kabat numbering, V domains shown)
VH: B26 VH
VL: B26 VL with F85A, T87D
B31: H3 designed Vlambda-Ckappa chimeric Fab, design 23 (E83V) (Fab, name in Kabat numbering, V domains shown)
VH: B26 VH
VL: B26 VL with F85V, T87D, E109T
B32: H3 designed Vlambda-Ckappa chimeric Fab, design 25 (E83V_V106I) (Fab, name in Kabat numbering, V domains shown)
VH: B26 VH
VL: B26 VL with F85V, T87D, E109T, V110I
B33: H3 designed Vlambda-Ckappa chimeric Fab, design 33 (E83I_D85T_T105E) (Fab, name in Kabat numbering, V domains shown)
VH: B26 VH
VL: B26 VL with F85I
B34: H3 designed Vlambda-Ckappa chimeric Fab, design 16 (E83F_V106I) (Fab, name in Kabat numbering, V domains shown)
VH: B26 VH
VL: B26 VL with T87D, E109T, V110I
B35: H3 designed Vlambda-Ckappa chimeric Fab, design 21 (E83F_D85V_T105E_V106I) (Fab, name in Kabat numbering, V domains shown)
VH: B26 VH
VL: B26 VL with T87V, V110I
B36: H3 designed Vlambda-Ckappa chimeric Fab, design 30 (E83I) (Fab, name in Kabat numbering, V domains shown)
VH: B26 VH
VL: B26 VL with F85I, T87D, E109T
B37: H3 designed Vlambda-Ckappa chimeric Fab, design 35 (E83A) (Fab, name in Kabat numbering, V domains shown)
VH: B26 VH
VL: B26 VL with F85A, T87D, E109T
B38: H3 designed Vlambda-Ckappa chimeric Fab, design 24 (E83V_T105E) (Fab, name in Kabat numbering, V domains shown)
VH: B26 VH
VL: B26 VL with F85V, T87D
B39: H3 Vlambda-Ckappa chimeric Fab (Fab, V domains shown)
VH: B26 VH
VL: B26 VL with F85E, T87D, E109T
notes: Parent chimeric Fab without stabilizing substitutions; also called chimera; VL-CK chimeric Fab
B40: H3 designed Vlambda-Ckappa chimeric Fab, design 14 (E83F) (Fab, name in Kabat numbering, V domains shown)
VH: B26 VH
VL: B26 VL with T87D, E109T
B41: H3 designed Vlambda-Ckappa chimeric Fab, design 19 (E83F_D85V_T105E) (Fab, name in Kabat numbering, V domains shown)
VH: B26 VH
VL: B26 VL with T87V
B42: H3 designed Vlambda-Ckappa chimeric Fab, design 31 (E83I_T105E) (Fab, name in Kabat numbering, V domains shown)
VH: B26 VH
VL: B26 VL with F85I, T87D
B43: H3 designed Vlambda-Ckappa chimeric Fab, design 27 (E83V_D85T_T105E) (Fab, name in Kabat numbering, V domains shown)
VH: B26 VH
VL: B26 VL with F85V
B44: H3 designed Vlambda-Ckappa chimeric Fab, design 26 (E83V_D85T) (Fab, name in Kabat numbering, V domains shown)
VH: B26 VH
VL: B26 VL with F85V, E109T
B45: H3 designed Vlambda-Ckappa chimeric Fab, design 29 (E83V_D85T_T105E_V106I) (Fab, name in Kabat numbering, V domains shown)
VH: B26 VH
VL: B26 VL with F85V, V110I
B46: H3 designed Vlambda-Ckappa chimeric Fab, design 38 (E83A_D85T_T105E) (Fab, name in Kabat numbering, V domains shown)
VH: B26 VH
VL: B26 VL with F85A
B47: H3 designed Vlambda-Ckappa chimeric Fab, design 28 (E83V_D85V_T105E) (Fab, name in Kabat numbering, V domains shown)
VH: B26 VH
VL: B26 VL with F85V, T87V
B48: H3 designed Vlambda-Ckappa chimeric Fab, design 39 (E83A_D85T_T105E_V106I) (Fab, name in Kabat numbering, V domains shown)
VH: B26 VH
VL: B26 VL with F85A, V110I
B49: H3 designed Vlambda-Ckappa chimeric Fab, design 32 (E83I_D85T) (Fab, name in Kabat numbering, V domains shown)
VH: B26 VH
VL: B26 VL with F85I, E109T
B50: H3 designed Vlambda-Ckappa chimeric Fab, design 17 (E83F_D85T) (Fab, name in Kabat numbering, V domains shown)
VH: B26 VH
VL: B26 VL with E109T
B51: H3 designed Vlambda-Ckappa chimeric Fab, design 22 (E83F_D85T_T105E_V106I_L106AK) (Fab, V domains shown)
VH: B26 VH
VL: B26 VL with V110I, L111K
B52: H3 designed Vlambda-Ckappa chimeric Fab, design 20 (E83F_D85T_T105E_V106I) (Fab, name in Kabat numbering, V domains shown)
VH: B26 VH
VL: B26 VL with V110I
B53: H3 designed Vlambda-Ckappa chimeric Fab, design 34 (E83I_D85T_T105E_V106I) (Fab, name in Kabat numbering, V domains shown)
VH: B26 VH
VL: B26 VL with F85I, V110I

These binders were tested against T1, recombinant human IL-17A (human, UniProt Q16552 20-155, limits assumed) (assay: SPR (ProteOn), IL-17A immobilized, Fab analyte;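 note: IL-17A amine-coupled on a GLC sensor chip at roughly 75–200 RU, double-referenced sensorgrams fitted with a Langmuir binding model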).
T1 construct: Bought reagent
T1 sequence (Q16552 20-155 limits assumed): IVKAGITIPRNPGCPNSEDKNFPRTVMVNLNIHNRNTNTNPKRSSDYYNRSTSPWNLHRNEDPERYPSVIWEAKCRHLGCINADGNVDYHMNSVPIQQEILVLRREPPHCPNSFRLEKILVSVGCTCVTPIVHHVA
Method: IL-17 affinity determination was carried out as follows. The IL-17A surface was generated using a GLC sensorchip activated by a 1:10 dilution of the standard BioRad sNHS/EDC solutions injected for 140s at 100 pt/min in the ligand (vertical) direction. Immediately after the activation, 1 to 4 microg/mL solution of IL-17A in 10 mM NaOAc pH 4.5 was injected in the ligand (vertical) direction at a flow rate of 25 or 100 microL/min until approximately 75-200 resonance units (RUs) were immobilized. Remaining active groups were quenched by a 140s injection of 1M ethanolamine at 100 μL/min also in the ligand direction. […] Firstly, two buffer injections for 30s at 100 microL/min in the analyte (horizontal) direction were used to stabilize the baseline. […] Sensorgrams were aligned and double-referenced using the buffer blank injection and interspots, and the resulting sensorgrams were analyzed using ProteOn Manager software v3.1. The double-referenced sensorgrams were fit to the Langmuir binding model.

| Kd | Binder |
| --- | --- |
| 0.3 nM | B1 |
| 0.3 nM | B2 |
| 0.3 nM | B3 |
| 0.3 nM | B4 |
| 0.2 nM | B5 |
| 0.2 nM | B6 |
| 0.2 nM | B7 |
| 0.3 nM | B8 |
| 0.3 nM | B9 |
| 0.2 nM | B10 |
| 0.2 nM | B11 |
| 0.3 nM | B12 |
| 0.3 nM | B13 |
| 0.2 nM | B14 |
| 0.2 nM | B15 |
| 0.3 nM | B16 |
| 0.3 nM | B17 |
| 0.3 nM | B18 |
| 0.3 nM | B19 |
| 0.3 nM | B20 |
| 0.4 nM | B21 |
| 0.2 nM | B22 |
| 0.3 nM | B23 |
| 0.3 nM | B24 |
| 0.3 nM | B25 |

What follows are binders tested against T2, recombinant human HER3 (human, UniProt P21860 20-643) (assay: SPR (Biacore T200), HER3 captured via anti-His, Fab analyte;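 note: single cycle kinetics with five Fab concentrations, referenced against a blank flow cell and mock-buffer injections, sensorgrams fit to a 1:1 binding model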).
T2 construct: Bought reagent
Method: HER3 affinity determination in Fabs was carried out as follows. The screening of Fabs (preparative SEC purified) for binding to HER3 antigen occurred in two steps: an indirect capture of HER3 onto the anti-His antibody, followed by the injection of five concentrations of Fabs, for kinetic analysis using single cycle kinetics. […] HER3 was injected at 4-8 μg/mL over the active flow cell for 60 s at a flow rate of 10 μL/min. […] HER3 was not captured on the reference (blank) flow cell. […] The captured HER3 surfaces were regenerated by 10 mM glycine pH 1.5 for 120 s at 30 μL/min to prepare the surfaces for the next injection cycle. At least two mock-buffer injections were performed for each analyte injection and used for referencing. The resulting single cycle kinetics sensorgrams were analyzed using Biacore T200 BiaEvaluation software version 3.0 and fit to the 1:1 binding model.

| Kd | Binder |
| --- | --- |
| 90.5 nM | B26 |
| 92.4 nM | B27 |
| 90.8 nM | B28 |
| 83.5 nM | B29 |
| 66.4 nM | B30 |
| 95.7 nM | B31 |
| 80.6 nM | B32 |
| 89 nM | B33 |
| 88.5 nM | B34 |
| 82.6 nM | B35 |
| 95.1 nM | B36 |
| 59.1 nM | B37 |
| 102 nM | B38 |
| 92.7 nM | B39 |
| 92.6 nM | B40 |
| 83 nM | B41 |
| 82.7 nM | B42 |
| 84.1 nM | B43 |
| 82.1 nM | B44 |
| 77 nM | B45 |
| 72.2 nM | B46 |
| 89.2 nM | B47 |
| 89.6 nM | B48 |
| 83.8 nM | B49 |
| 83.1 nM | B50 |
| 80.5 nM | B51 |
| 85.8 nM | B52 |
| 75.4 nM | B53 |
